Test results from patent US20260242735A1 (UNIVERSIT T BASEL, published 2026).

Columns and labels:
Assay in all cases: alanine scan, flow cytometry, HEK293-T;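 also: antibody binding to each alanine-substituted CD33 mutant expressed transiently in HEK293-T, read as fluorescence minus background, mean of duplicates, relative to wild-type CD33 set as 100%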
human CD33 N237A = human CD33 N237A (human, UniProt P20138 18-364)
human CD33 P203A = human CD33 P203A (human, UniProt P20138 18-364)
human CD33 W179A = human CD33 W179A (human, UniProt P20138 18-364)
human CD33 T211A = human CD33 T211A (human, UniProt P20138 18-364)
human CD33 L180A = human CD33 L180A (human, UniProt P20138 18-364)
human CD33 V196A = human CD33 V196A (human, UniProt P20138 18-364)
human CD33 S194A = human CD33 S194A (human, UniProt P20138 18-364)
Chain of human CD33 S194A (P20138 18-364 S194A limits assumed): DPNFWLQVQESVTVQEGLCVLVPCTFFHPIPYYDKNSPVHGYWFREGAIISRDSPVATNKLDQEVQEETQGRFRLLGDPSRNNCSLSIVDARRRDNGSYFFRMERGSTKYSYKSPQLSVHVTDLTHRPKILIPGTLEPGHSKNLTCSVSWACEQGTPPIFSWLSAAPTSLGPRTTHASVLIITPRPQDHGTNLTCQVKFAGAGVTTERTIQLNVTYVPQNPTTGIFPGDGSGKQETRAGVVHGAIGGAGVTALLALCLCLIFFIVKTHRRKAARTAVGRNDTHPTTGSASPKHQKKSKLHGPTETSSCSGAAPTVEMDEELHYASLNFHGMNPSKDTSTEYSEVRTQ

human CD33 H193A = human CD33 H193A (human, UniProt P20138 18-364)
Chain of human CD33 H193A (P20138 18-364 H193A limits assumed): as the sequence (P20138 18-364 S194A limits assumed) above, with H176A, A177S counted along it

human CD33 I227A = human CD33 I227A (human, UniProt P20138 18-364)
Chain of human CD33 I227A (P20138 18-364 I227A limits assumed): as the sequence (P20138 18-364 S194A limits assumed) above, with A177S, I210A counted along it

human CD33 T232A = human CD33 T232A (human, UniProt P20138 18-364)
Chain of human CD33 T232A (P20138 18-364 T232A limits assumed): as the sequence (P20138 18-364 S194A limits assumed) above, with A177S, T215A counted along it

human CD33 E170A = human CD33 E170A (human, UniProt P20138 18-364)
Chain of human CD33 E170A (P20138 18-364 E170A limits assumed): as the sequence (P20138 18-364 S194A limits assumed) above, with E153A, A177S counted along it

human CD33 T223A = human CD33 T223A (human, UniProt P20138 18-364)
human CD33 Q213A = human CD33 Q213A (human, UniProt P20138 18-364)
Chain of human CD33 Q213A (P20138 18-364 Q213A limits assumed): as the sequence (P20138 18-364 S194A limits assumed) above, with A177S, Q196A counted along it

human CD33 P189A = human CD33 P189A (human, UniProt P20138 18-364)
Chain of human CD33 P189A (P20138 18-364 P189A limits assumed): as the sequence (P20138 18-364 S194A limits assumed) above, with P172A, A177S counted along it

human CD33 G188A = human CD33 G188A (human, UniProt P20138 18-364)
human CD33 T208A = human CD33 T208A (human, UniProt P20138 18-364)
Chain of human CD33 T208A (P20138 18-364 T208A limits assumed): as the sequence (P20138 18-364 S194A limits assumed) above, with A177S, T191A counted along it

human CD33 G220A = human CD33 G220A (human, UniProt P20138 18-364)
Chain of human CD33 G220A (P20138 18-364 G220A limits assumed): as the sequence (P20138 18-364 S194A limits assumed) above, with A177S, G203A counted along it

human CD33 S195A = human CD33 S195A (human, UniProt P20138 18-364)
Chain of human CD33 S195A (P20138 18-364 S195A limits assumed): as the sequence (P20138 18-364 S194A limits assumed) above, with A177S, S178A counted along it

human CD33 Q228A = human CD33 Q228A (human, UniProt P20138 18-364)
Chain of human CD33 Q228A (P20138 18-364 Q228A limits assumed): as the sequence (P20138 18-364 S194A limits assumed) above, with A177S, Q211A counted along it

human CD33 P201A = human CD33 P201A (human, UniProt P20138 18-364)
Chain of human CD33 P201A (P20138 18-364 P201A limits assumed): as the sequence (P20138 18-364 S194A limits assumed) above, with A177S, P184A counted along it

human CD33 L229A = human CD33 L229A (human, UniProt P20138 18-364)
human CD33 H300A = human CD33 H300A (human, UniProt P20138 18-364)
human CD33 G249A = human CD33 G249A (human, UniProt P20138 18-364)
human CD33 L273A = human CD33 L273A (human, UniProt P20138 18-364)
human CD33 T292A = human CD33 T292A (human, UniProt P20138 18-364)
human CD33 F279A = human CD33 F279A (human, UniProt P20138 18-364)
human CD33 S314A = human CD33 S314A (human, UniProt P20138 18-364)
human CD33 I281A = human CD33 I281A (human, UniProt P20138 18-364)
human CD33 C276A = human CD33 C276A (human, UniProt P20138 18-364)
human CD33 G260A = human CD33 G260A (human, UniProt P20138 18-364)
human CD33 K313A = human CD33 K313A (human, UniProt P20138 18-364)
human CD33 A293S = human CD33 A293S (human, UniProt P20138 18-364)
human CD33 F243A = human CD33 F243A (human, UniProt P20138 18-364)
human CD33 K309A = human CD33 K309A (human, UniProt P20138 18-364)
human CD33 F280A = human CD33 F280A (human, UniProt P20138 18-364)
human CD33 A255S = human CD33 A255S (human, UniProt P20138 18-364)

Chain of human CD33 P203A (P20138 18-364 P203A limits assumed): as the sequence (P20138 18-364 S194A limits assumed) above, with A177S, P186A counted along it
Chain of human CD33 N237A (P20138 18-364 N237A limits assumed): as the sequence (P20138 18-364 S194A limits assumed) above, with A177S, N220A counted along it

| Binder | Mean % WT Binding (human CD33 N237A) [%] | Mean % WT Binding (human CD33 P203A) [%] | Mean % WT Binding (human CD33 W179A) [%] | Mean % WT Binding (human CD33 T211A) [%] | Mean % WT Binding (human CD33 L180A) [%] | Mean % WT Binding (human CD33 V196A) [%] | Mean % WT Binding (human CD33 S194A) [%] | Mean % WT Binding (human CD33 H193A) [%] | Mean % WT Binding (human CD33 I227A) [%] | Mean % WT Binding (human CD33 T232A) [%] | Mean % WT Binding (human CD33 E170A) [%] | Mean % WT Binding (human CD33 T223A) [%] | Mean % WT Binding (human CD33 Q213A) [%] | Mean % WT Binding (human CD33 P189A) [%] | Mean % WT Binding (human CD33 G188A) [%] | Mean % WT Binding (human CD33 T208A) [%] | Mean % WT Binding (human CD33 G220A) [%] | Mean % WT Binding (human CD33 S195A) [%] | Mean % WT Binding (human CD33 Q228A) [%] | Mean % WT Binding (human CD33 P201A) [%] | also measured |
| --- | --- | --- | --- | --- | --- | --- | --- | --- | --- | --- | --- | --- | --- | --- | --- | --- | --- | --- | --- | --- | --- |
| Refmab #2 (antibody, V domains shown, In the alanine scan antibodies were used as IgG or Fab) VH: QVQLVQSGAEVKKPGSSVKVSCKASGGTFSDYAISWVRQAPGQGLEWMGRIIPILGVADYAQKFQGRVTITADKSTRTAYMELSSLRSEDTAVYYCARNWADAFDIWGQGTMVTVSS VL: DIQLTQSPSSLSASVGDRVTITCRASQGISSVLAWYQQKPGKAPKLLIYDASSLESGVPSRFSGSGSGTDFTLTISSLQPEDFATYYCQQFDSSITFGQGTKLEIK | 112 | 109 | 113 | 111 | 118 | 106 | 112 | 122 | 110 | 84.8 | 123 | 126 | 115 | 116 | 130 | 117 | 132 | 119 | 120 | 110 | Mean % WT Binding (human CD33 L229A): 113% |
| Refmab #2 (antibody, V domains shown, The alanine scan used IgG or Fab) VH: QVQLVQSGAEVKKPGSSVKVSCKASGGTFSDYAISWVRQAPGQGLEWMGRIIPILGVADYAQKFQGRVTITADKSTRTAYMELSSLRSEDTAVYYCARNWADAFDIWGQGTMVTVSS VL: DIQLTQSPSSLSASVGDRVTITCRASQGISSVLAWYQQKPGKAPKLLIYDASSLESGVPSRFSGSGSGTDFTLTISSLQPEDFATYYCQQFDSSITFGQGTKLEIK |  |  |  |  |  |  |  |  |  |  |  |  |  |  |  |  |  |  |  |  | Mean % WT Binding (human CD33 H300A): 98.9 % WT binding; Mean % WT Binding (human CD33 G249A): 127 % WT binding; Mean % WT Binding (human CD33 L273A): 117 % WT binding; Mean % WT Binding (human CD33 T292A): 94.2 % WT binding; Mean % WT Binding (human CD33 F279A): 116 % WT binding; Mean % WT Binding (human CD33 S314A): 95.5 % WT binding; Mean % WT Binding (human CD33 I281A): 114 % WT binding; Mean % WT Binding (human CD33 C276A): 103 % WT binding; Mean % WT Binding (human CD33 G260A): 105 % WT binding; Mean % WT Binding (human CD33 K313A): 108 % WT binding; Mean % WT Binding (human CD33 A293S): 114 % WT binding; Mean % WT Binding (human CD33 F243A): 102 % WT binding; Mean % WT Binding (human CD33 K309A): 111 % WT binding; Mean % WT Binding (human CD33 F280A): 120 % WT binding; Mean % WT Binding (human CD33 A255S): 109 % WT binding |
| Refmab #4 (antibody, V domains shown, In the alanine scan antibodies were used as IgG or Fab) VH: QVQLVQSGAEVKKPGESVKVSCKASGYTFTNYGMNWVKQAPGQGLEWMGWINTYTGEPTYADKFQGRVTMTTDTSTSTAYMEIRNLGGDDTAVYYCARWSWSDGYYVYFDYWGQGTSVTVSS VL: DIVMTQSPDSLTVSLGERTTINCKSSQSVLDSSTNKNSLAWYQQKPGQPPKLLLSWASTRESGIPDRFSGSGSGTDFTLTIDSPQPEDSATYYCQQSAHFPITFGQGTRLEIK | 72.9 | 112 | 83.1 | 79.4 | 101 | 102 | 79 | 103 | 78.7 | 57.4 | 95.5 | 106 | 103 | 98.2 | 91.3 | 108 | 115 | 112 | 112 | 103 | Mean % WT Binding (human CD33 L229A): 89.1% |
| Refmab #1 (antibody, V domains shown, The alanine scan used IgG or Fab; also called hP67.6) VH: EVQLVQSGAEVKKPGSSVKVSCKASGYTITDSNIHWVRQAPGQSLEWIGYIYPYNGGTDYNQKFKNRATLTVDNPTNTAYMELSSLRSEDTAFYYCVNGNPWLAYWGQGTLVTVSS VL: DIQLTQSPSTLSASVGDRVTITCRASESLDNYGIRFLTWFQQKPGKAPKLLMYAASNQGSGVPSRFSGSGSGTEFTLTISSLQPDDFATYYCQQTKEVPWSFGQGTKVEVK |  |  |  |  |  |  |  |  |  |  |  |  |  |  |  |  |  |  |  |  | Mean % WT Binding (human CD33 H300A): 76.5 % WT binding; Mean % WT Binding (human CD33 G249A): 89.2 % WT binding; Mean % WT Binding (human CD33 L273A): 110 % WT binding; Mean % WT Binding (human CD33 T292A): 89.5 % WT binding; Mean % WT Binding (human CD33 F279A): 104 % WT binding; Mean % WT Binding (human CD33 S314A): 96.2 % WT binding; Mean % WT Binding (human CD33 I281A): 85 % WT binding; Mean % WT Binding (human CD33 C276A): 83.4 % WT binding; Mean % WT Binding (human CD33 G260A): 81.9 % WT binding; Mean % WT Binding (human CD33 K313A): 84.1 % WT binding; Mean % WT Binding (human CD33 A293S): 90.6 % WT binding; Mean % WT Binding (human CD33 F243A): 86.5 % WT binding; Mean % WT Binding (human CD33 K309A): 92.7 % WT binding; Mean % WT Binding (human CD33 F280A): 98.4 % WT binding; Mean % WT Binding (human CD33 A255S): 98.8 % WT binding |

Second part, led by results:

| Mean % WT Binding (human CD33 N237A) [%] | Mean % WT Binding (human CD33 P203A) [%] | Mean % WT Binding (human CD33 W179A) [%] | Mean % WT Binding (human CD33 T211A) [%] | Mean % WT Binding (human CD33 L180A) [%] | Mean % WT Binding (human CD33 V196A) [%] | Mean % WT Binding (human CD33 S194A) [%] | Mean % WT Binding (human CD33 H193A) [%] | Mean % WT Binding (human CD33 I227A) [%] | Mean % WT Binding (human CD33 T232A) [%] | Mean % WT Binding (human CD33 E170A) [%] | Mean % WT Binding (human CD33 T223A) [%] | Mean % WT Binding (human CD33 Q213A) [%] | Mean % WT Binding (human CD33 P189A) [%] | Mean % WT Binding (human CD33 G188A) [%] | Mean % WT Binding (human CD33 T208A) [%] | Mean % WT Binding (human CD33 G220A) [%] | Mean % WT Binding (human CD33 S195A) [%] | Mean % WT Binding (human CD33 Q228A) [%] | Mean % WT Binding (human CD33 P201A) [%] | Binder | also measured |
| --- | --- | --- | --- | --- | --- | --- | --- | --- | --- | --- | --- | --- | --- | --- | --- | --- | --- | --- | --- | --- | --- |
| 85.6 | 105 | 103 | 96.2 | 102 | 105 | 101 | 92 | 127 | 127 | 148 | 93.5 | 135 | 95.5 | 85.1 | 83.6 | 114 | 95.2 | 157 | 90.9 | Refmab #3 (antibody, V domains shown, In the alanine scan antibodies were used as IgG or Fab) VH: QVQLVQSGAEVKKPGSSVKVSCKASGYTFTDYNMHWVRQAPGQGLEWIGYIYPYNGGTGYNQKFKSKATITADESTNTAYMELSSLRSEDTAVYYCARGRPAMDYWGQGTLVTVSS VL: DIQMTQSPSSLSASVGDRVTITCRASESVDNYGISFMNWFQQKPGKAPKLLIYAASNQGSGVPSRFSGSGSGTDFTLTISSLQPDDFATYYCQQSKEVPWTFGQGTKVEIK | Mean % WT Binding (human CD33 L229A): 150% |
| 98.7 | 103 | 93.5 | 82.4 | 91.3 | 83.9 | 93.7 | 99.9 | 86.7 | 76.6 | 90.9 | 103 | 95.3 | 89.2 | 102 | 101 | 104 | 86.9 | 99.4 | 85.6 | Refmab #1 (antibody, V domains shown, In the alanine scan antibodies were used as IgG or Fab; also called hP67.6) VH: EVQLVQSGAEVKKPGSSVKVSCKASGYTITDSNIHWVRQAPGQSLEWIGYIYPYNGGTDYNQKFKNRATLTVDNPTNTAYMELSSLRSEDTAFYYCVNGNPWLAYWGQGTLVTVSS VL: DIQLTQSPSTLSASVGDRVTITCRASESLDNYGIRFLTWFQQKPGKAPKLLMYAASNQGSGVPSRFSGSGSGTEFTLTISSLQPDDFATYYCQQTKEVPWSFGQGTKVEVK | Mean % WT Binding (human CD33 L229A): 93.1% |
